The source of these data is patent US20050100554A1 (published 2005).

B1: Human papillomavirus 16 L2 (other)
chain: MRHKRSAKRTKRASATQLYKTCKQAGTCPPDIIPKVEGKTIAVQILQYGSMGVFFGGLGIGTGSGTGGRTGYIPLGTRPPTATDTLAPVRPPLTVDPVGPSDPSIVSLVEETSFIDAGAPTSVPSIPPDVSGFSITTSTDTTPAILDINNTVTTVTTHNNPTFTDPSVLQPPTPAETGGHFTLSSSTISTHNYEEIPMDTFIVSTNPNTVTSSTPIPGSRPVARLGLYSRTTQQVKVVDPAFVTTPTKLITYDNPAYEGIDVDNTLYFSSNDNSINIAPDPDFLDIVALHRPALTSRRTGIRYSRIGNKQTLRTRSGKSIGAKVHYYYDLSTIDPAEEIELQTITPSTYTTTSHAASPTSINNGLYDIYADDFITDTSTTPVPSVPSTSLSGYIPANTTIPFGGAYNIPLVSGPDIPINITDQAPSLIPIVPGSPQYTIIADAGDFYLHPSYYMLRKRRKRLPYFFSDVSLAA
notes: also called HPV 16 L2; cbe_251737

One assay concerns the target T1, KIAA1389 protein (human, UniProt Q9P2F8 219-1722).
T1 construct: also called cbe_3663966
The experiment in a line: Y2H; INT ID 187.

A further assay deals with T2, gbh_al121903 (human, UniProt Q9Y6D5 1145-1785).
T2 construct: also called cbe_3473488
T2 sequence: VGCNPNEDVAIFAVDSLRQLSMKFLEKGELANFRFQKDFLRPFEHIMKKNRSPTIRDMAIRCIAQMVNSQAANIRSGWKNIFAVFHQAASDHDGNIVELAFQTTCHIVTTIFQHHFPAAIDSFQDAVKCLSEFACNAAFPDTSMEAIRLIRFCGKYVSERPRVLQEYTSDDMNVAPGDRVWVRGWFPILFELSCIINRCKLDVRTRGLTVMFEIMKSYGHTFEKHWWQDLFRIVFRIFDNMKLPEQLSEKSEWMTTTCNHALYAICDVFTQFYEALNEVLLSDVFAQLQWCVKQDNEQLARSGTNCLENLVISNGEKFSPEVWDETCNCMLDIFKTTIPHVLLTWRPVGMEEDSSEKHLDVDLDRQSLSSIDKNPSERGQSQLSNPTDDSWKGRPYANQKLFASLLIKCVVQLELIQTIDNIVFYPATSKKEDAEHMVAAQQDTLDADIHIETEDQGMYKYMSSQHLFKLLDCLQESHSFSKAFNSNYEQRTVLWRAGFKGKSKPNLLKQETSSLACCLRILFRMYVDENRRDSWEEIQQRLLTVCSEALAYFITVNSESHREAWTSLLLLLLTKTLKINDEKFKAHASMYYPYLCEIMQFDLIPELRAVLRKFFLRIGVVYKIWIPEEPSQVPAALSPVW
The experiment in a line: Y2H; INT ID 185.

For assay [1], the target named is T3, signal-induced proliferation-associated 1 like 1 (human, UniProt O43166 1-1804).
T3 construct: also called KIAA0440; cbe_3056756
T3 sequence (O43166 whole entry): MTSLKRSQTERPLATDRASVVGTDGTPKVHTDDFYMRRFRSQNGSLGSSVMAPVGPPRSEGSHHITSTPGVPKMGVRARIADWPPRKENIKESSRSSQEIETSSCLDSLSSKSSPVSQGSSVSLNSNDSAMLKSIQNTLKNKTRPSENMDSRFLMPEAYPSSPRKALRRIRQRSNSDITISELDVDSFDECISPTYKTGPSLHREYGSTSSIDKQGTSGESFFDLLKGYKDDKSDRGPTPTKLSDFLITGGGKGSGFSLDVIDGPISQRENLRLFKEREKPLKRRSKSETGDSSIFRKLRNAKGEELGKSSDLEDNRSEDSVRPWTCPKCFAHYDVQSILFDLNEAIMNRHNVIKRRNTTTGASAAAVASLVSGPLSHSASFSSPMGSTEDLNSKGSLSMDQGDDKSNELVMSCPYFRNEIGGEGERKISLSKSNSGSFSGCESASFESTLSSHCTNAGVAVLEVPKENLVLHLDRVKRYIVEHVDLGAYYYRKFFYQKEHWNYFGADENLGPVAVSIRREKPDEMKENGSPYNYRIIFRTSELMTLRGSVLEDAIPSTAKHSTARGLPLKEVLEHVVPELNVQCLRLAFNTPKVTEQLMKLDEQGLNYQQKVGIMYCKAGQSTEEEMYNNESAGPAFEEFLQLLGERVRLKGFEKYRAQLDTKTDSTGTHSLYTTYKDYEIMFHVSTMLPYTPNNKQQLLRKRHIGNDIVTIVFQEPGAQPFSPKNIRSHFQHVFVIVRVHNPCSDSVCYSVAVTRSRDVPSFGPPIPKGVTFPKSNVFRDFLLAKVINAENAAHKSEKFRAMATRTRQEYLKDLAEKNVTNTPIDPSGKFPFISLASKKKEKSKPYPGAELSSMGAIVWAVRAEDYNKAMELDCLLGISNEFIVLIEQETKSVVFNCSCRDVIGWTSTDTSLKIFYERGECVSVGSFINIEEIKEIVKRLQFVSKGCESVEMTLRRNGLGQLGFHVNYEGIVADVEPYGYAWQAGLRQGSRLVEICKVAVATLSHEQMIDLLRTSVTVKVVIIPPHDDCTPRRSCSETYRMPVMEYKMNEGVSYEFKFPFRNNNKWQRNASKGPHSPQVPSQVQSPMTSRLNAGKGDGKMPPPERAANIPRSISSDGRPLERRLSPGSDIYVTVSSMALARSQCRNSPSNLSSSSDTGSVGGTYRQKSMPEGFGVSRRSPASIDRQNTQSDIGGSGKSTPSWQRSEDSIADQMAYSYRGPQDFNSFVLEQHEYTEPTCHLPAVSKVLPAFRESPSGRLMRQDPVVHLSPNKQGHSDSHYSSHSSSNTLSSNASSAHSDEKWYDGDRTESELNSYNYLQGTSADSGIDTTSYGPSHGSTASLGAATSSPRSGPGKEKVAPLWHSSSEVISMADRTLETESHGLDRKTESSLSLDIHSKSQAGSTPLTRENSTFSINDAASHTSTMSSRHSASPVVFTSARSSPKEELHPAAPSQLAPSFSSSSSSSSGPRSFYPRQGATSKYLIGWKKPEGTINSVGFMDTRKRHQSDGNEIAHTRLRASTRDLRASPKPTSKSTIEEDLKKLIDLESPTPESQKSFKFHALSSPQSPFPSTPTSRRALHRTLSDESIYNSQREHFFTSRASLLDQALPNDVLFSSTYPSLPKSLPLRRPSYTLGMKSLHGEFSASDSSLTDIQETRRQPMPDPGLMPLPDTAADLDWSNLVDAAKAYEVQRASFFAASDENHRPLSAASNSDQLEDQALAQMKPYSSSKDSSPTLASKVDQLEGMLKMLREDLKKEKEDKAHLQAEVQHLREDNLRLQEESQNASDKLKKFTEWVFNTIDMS
Put plainly: Y2H; INT ID 184.

Assay [2] deals with T4, Human Papillomavirus 1a E2 (Human Papillomavirus 1a, UniProt P03118 1-401).
T4 construct: also called HPV 1a E2; cbe_251917
T4 sequence: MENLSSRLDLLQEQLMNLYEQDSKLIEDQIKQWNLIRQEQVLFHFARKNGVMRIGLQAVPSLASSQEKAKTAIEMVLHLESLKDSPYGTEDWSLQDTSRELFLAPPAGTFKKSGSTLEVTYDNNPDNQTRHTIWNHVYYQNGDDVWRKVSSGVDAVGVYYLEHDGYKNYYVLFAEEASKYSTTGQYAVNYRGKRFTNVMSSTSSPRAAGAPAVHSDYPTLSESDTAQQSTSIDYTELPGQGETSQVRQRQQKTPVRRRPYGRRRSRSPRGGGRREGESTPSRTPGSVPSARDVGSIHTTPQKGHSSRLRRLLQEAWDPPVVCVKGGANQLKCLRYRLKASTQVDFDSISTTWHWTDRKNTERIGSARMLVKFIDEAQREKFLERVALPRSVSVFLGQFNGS
The experiment in a line: Y2H; INT ID 415.

For assay [3], the target named is T4, Human Papillomavirus 1a E2. Put plainly: Y2H; INT ID 383.
The target of assay [4] is T5, Human papillomavirus 16 L1 (Human papillomavirus 16, UniProt P03101 1-505).
T5 construct: also called HPV 16 L1; cbe_251784
T5 sequence: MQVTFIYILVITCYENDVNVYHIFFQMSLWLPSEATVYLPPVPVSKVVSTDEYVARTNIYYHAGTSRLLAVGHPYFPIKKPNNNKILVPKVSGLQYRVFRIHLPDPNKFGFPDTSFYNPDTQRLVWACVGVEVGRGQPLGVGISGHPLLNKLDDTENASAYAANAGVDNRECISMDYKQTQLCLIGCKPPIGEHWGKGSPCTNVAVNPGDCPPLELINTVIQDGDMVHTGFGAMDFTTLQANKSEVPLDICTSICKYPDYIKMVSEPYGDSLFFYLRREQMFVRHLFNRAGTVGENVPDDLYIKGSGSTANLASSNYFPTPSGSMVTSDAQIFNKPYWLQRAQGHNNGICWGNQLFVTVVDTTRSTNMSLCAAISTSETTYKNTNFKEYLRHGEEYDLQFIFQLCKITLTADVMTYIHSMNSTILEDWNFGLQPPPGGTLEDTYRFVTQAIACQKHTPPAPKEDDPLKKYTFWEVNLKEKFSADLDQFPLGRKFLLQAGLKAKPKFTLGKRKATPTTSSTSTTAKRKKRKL
The experiment in a line: Y2H; INT ID 197.

Assay [5] deals with T5, Human papillomavirus 16 L1. Put plainly: Y2H; INT ID 196.
Assay [6] deals with T4, Human Papillomavirus 1a E2. The experiment in a line: Y2H; INT ID 410.
The target of assay [7] is B1. Put plainly: Y2H; INT ID 188.
Assay [8] has as its target B1. Put plainly: Y2H; INT ID 191.
In assay [9] the target is B1. Put plainly: Y2H; INT ID 189.

T1 sequence (Q9P2F8 other isoform, or with tags, fused parts or gaps limits assumed): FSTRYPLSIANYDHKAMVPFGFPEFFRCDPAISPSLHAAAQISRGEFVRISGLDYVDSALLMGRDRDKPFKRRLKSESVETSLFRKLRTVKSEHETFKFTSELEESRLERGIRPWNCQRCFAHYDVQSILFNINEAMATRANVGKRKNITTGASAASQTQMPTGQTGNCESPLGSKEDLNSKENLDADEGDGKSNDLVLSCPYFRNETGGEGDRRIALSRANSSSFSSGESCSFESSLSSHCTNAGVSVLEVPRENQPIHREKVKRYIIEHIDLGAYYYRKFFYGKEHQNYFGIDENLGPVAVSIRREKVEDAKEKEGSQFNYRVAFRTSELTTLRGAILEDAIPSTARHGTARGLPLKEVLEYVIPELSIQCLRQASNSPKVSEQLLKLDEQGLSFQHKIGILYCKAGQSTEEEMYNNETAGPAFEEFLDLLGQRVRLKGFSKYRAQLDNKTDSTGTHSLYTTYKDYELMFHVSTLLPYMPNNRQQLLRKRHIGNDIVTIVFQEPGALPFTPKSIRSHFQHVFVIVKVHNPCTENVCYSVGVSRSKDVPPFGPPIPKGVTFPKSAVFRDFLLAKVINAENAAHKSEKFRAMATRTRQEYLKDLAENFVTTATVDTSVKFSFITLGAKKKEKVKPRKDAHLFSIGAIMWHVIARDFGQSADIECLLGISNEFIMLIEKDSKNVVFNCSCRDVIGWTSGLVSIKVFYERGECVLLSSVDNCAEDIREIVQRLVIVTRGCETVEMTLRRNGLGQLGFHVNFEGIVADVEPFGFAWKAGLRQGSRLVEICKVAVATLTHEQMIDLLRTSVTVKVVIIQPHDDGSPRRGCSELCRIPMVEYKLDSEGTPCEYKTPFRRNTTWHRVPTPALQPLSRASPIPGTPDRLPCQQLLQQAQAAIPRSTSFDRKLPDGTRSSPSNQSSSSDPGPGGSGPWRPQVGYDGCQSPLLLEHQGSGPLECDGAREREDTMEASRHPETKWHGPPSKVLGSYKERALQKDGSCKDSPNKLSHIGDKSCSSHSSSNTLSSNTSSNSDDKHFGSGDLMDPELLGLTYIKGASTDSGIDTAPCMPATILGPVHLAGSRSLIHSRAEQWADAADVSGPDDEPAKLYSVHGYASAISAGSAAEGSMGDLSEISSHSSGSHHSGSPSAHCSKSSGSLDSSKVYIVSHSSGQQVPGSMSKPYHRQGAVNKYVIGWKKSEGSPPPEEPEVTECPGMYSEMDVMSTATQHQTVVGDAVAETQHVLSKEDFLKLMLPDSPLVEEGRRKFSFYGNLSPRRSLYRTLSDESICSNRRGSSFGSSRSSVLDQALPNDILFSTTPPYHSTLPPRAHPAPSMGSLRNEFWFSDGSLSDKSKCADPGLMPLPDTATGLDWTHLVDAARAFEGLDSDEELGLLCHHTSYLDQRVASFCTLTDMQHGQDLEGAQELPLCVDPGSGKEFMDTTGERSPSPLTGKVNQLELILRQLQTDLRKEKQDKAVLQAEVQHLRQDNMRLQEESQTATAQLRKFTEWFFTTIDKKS

Regarding B1, the binding result (in the assay with KIAA1389 protein; in the assay with gbh_al121903; in assay [1]) was “binds” throughout.

B2: hypothetical protein MGC3222 (other)
chain: VVSPDSIHSVAPENEGRLVHIIGALRTSKLLSDPNYGVHLPAVKLRRHVEMYQWVETEESREYTEDGQVKKETRYSYNTEWRSEIINSKNFDREIGHNNPSAMAVESFTATAPFVQIGRFFLSSGLIDKVDNFKSLSLSKLEDPHVDIIRRGDFFYHSENPKYPEVGDLRVSFSYAGLSGDDPDLGPAHVVTVIARQRGDQLVPFSTKSGDTLLLLHHGDFSAEVSAVPYSYGGGTSMSFLPSSGYLIRSHYQGS
notes: also called cbe_3583511
Regarding B2, the binding result in assay [2] is recorded as “binds”.

B3: low molecular mass ubiquinone-binding protein (9.5 kD) (other)
chain: MGREFGNLTRMRHVISYSLSPFEQRAYPHVFTKGIPNVLRRIRESFFRVVPQFVVFYLIYTWGTEEFERSKRRIQLPMKMTNEQRIRMTVPCL
notes: also called QP-C; cbe_1710
B3: the binding result in assay [3] was “binds”.

B4: crystallin, alpha B (other)
chain: MDIAIHHPWIRRPFFPFHSPSRLFDQFFGEHLLESDLFPTSTSLSPFYLRPPSFLRAPSWFDTGLSEMRLEKDRFSVNLDVKHFSPEELKVKVLGDVIEVHGKHEERQDEHGFISREFHRKYRIPADVDPLTITSSLSSDGVLTVNGPRKQVSGPERTIPITREEKPAVTAAPKK
notes: also called CRYAB; cbe_4281271
For B4, in assay [4], the binding result is given as “binds”.

B5: HCDI protein (other)
chain: MGWRRKRVPQRGRKAPPPQLHGNINNLYFPIRWRDRLHWDSPNPAAECQRHEVTLVSRKPGPGRITWDELAASGLPSCDAAVNLAGENILNPLRRWNETFQKEVLGSRLETTQLLAKAITKAPQPPKAWVLVTGVAYYQPSLTAEYDEDSPGGDFDFFSNLVTKWEAAARLPGDSTRQVVVRSGVVLGRGGGAMGHMLLPFRLGLGGPIGSGHQFFPWIHIGDLAGILTHALEANHVHGVLNGVAPSSATNAEFAQTLGAALGRRAFIPLPSAVVQAVFGRQRAIMLLEGQKVIPQRTLATGYQYSFPELGAALKEIVA
notes: also called cbe_1505425
As for B5, the binding result in assay [5] was “binds”.

B6: Prey2777 (other)
chain: MNPVPHWGEVFLLVGGEGEHLASQGTTPARDHRVGISPASQQAQPESWRRRQRDKGVDPEKAPSLTRQSQNPPSLTAPLGMPSACSCLPCGPAPEAAIILAGPPTALTVLPKGTGLKKSKRLLLESLMRRRIAHLKWGLPRRILESYFLFNFLGSCSLTLAGARLSGLNTGQELQAQQERYCEAQGSPPGLKSPERFQRVQRPDRKSSKLPIQARALERNRPHMSEPIKHFHPA
notes: also called FLJ23584; hypothetical protein FLJ23584
As to B6, in [6], the binding result is “binds”.

B7: chemokine-like factor 1 (other)
chain: MDNVQPKIKHRPFCFSVKGHVKMLRLALTVTSMTFFIIAQAPEPYIVITGFEVTVILFFILLYVLRLDRLMKWLFWPLLDIINSLVTTVFMLIVSVLALIPETTTLTVGGGVFALVTAVCCLADGALIYRKLLFNPSGPYQKKPVHEKKEVL
notes: also called HSPC224; CKLF1
B7: the binding result in [7] is “binds”.

B8: KIAA0276 (other)
chain: MHSDAAAVNFQLNSHLSTLANIHKIYHTLNKLNLTEDIGQDDHQTGSLRSCSSSDCFNKVMPPRKKRRPASGDDLSAKKSRHDSMYRKYDSTRIKTEEEAFSSKRCLEWFYEYAGTDDVVGPEGMEKFCEDIGVEPENVVMLVLAWKLDAQNMGYFTLQEWLKGMTSLQCDTTEKLRNTLDYLRSFLNDSTNFKLIYRYAFDFAREKDQRSLDINTAKCMLGLLLGKIWPLFPVFHQFLEQSKYKVINKDQWCNVLEFSRTINLDLSNYDEDGAWPVLLDEFVEWYKDKQMS
notes: also called cbe_4270335
On to B8, for which the binding result in assay [8] is “binds”.

B9: Rab coupling protein (other)
chain: MSLMVSAGRGLGAVWSPTHVQVTVLQARGLRAKGPGGTSDAYAVIQVGKEKYATSVSERSLGAPVWREEATFELPSLLSSGPAAAATLQLTVLHRALLGLDKFLGRAEVDLRDLHRDQGRRKTQWYKLKSKPGKKDKERGEIEVDIQFMRNNMTASMFDLSMKDKSRNPFGKLKDKIKGKNKDSGSDTASAIIPSTTPSVDSDDESVVKDKKKKSKIKTLLSKSNLQKTPLSQSMSVLPTSKPEKVLLRPGDFQSQWDEDDNEDESSSASDVMSHKRTASTDLKQLNQVNFTLPKKEGLSFLGGLRSKNDVLSRSNVCINGNHVYLEQPQPTGEIKDSSPSSSPSPKGFRKKTLFSSTENLAAGSWKEPAEGGGLSTDRDVSESSTKDSLKSMTLPTYRPAPLISGDLREKMAPANSEATKEAKESKKPESRRSSLLSLMTGKKDVAKGSEGENLLTVPGREKEGMLMGVKPGEDASGPAEDLVRRSEKDTAAVVSRQGSSLNLFEDVQITEPEAEPESKSEPRPPISSPRAPQTRAVKPRLHPVKPMNATATKVANCSLGTATIISENLNNEVMMKKYSPSDPAFAYAQLTHDELIQLVLKQKETISKKEFQVRELEDYIDNLLVRVMEETPNILRIPTQVGKKAGKM
notes: also called Hs.30289; RCP
B9: the binding result in assay [9] was “binds”.
